Results taken from the RNAGym collection of RNA variant scans (doi:10.1073/pnas.2313332121).
Fewer inactive variants are shown than the library holds.

B1: TPR 5TU (parent)
chain: GGAUCUUCUCGAUCUAACAAAAAAGACAAAUCUGCCACAAAGCUUGAGAGCAUCUUCGGAUGCAGAGGCGGCAGCCUUCGGUGGCGCGAUAGCGCCAACGUUCUCAACUAUGACACGCAAAACGCGUGCUCCGUUGAAUGGAGUUUAUCAUG

Variants of: B1
Assay: polymerase ribozyme fitness, log enrichment relative to wild type (log ratio); higher = more active; in vitro selection for triplet polymerase activity
Procedure, shortened: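 Only genotypes with ≥10 input reads and ≥1 read per output were kept after Illumina sequencing of input and output libraries. These libraries were PCR-built, transcribed mutants of each subunit of a heterodimeric triplet polymerase ribozyme, each put through one triplicate in vitro selection round with frozen incubation at −7 °C, gel excision of extended constructs, streptavidin-bead capture and RT-PCR. Fitness is a logarithmic ratio of genotype enrichment to wild-type enrichment, from inverse-variance-weighted replicate averages, with the logarithm in base 2.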

| Variant | polymerase ribozyme fitness (log ratio) |
| --- | --- |
| GGAUCUUCUCGAUCUAACAAAUAAGACAAAUCUGCCACAAAGCUUGAGAGCGUCUUCGGAUGCAGAGGCGGCAGCCUUCGGUGGCGCGAUCGCGCCAACGUUCUCAACUAUGACACGCAAAACGCGUGCUCCGUGGAAUGGAGUUUAUCAUG [A22U A52G A91C U135G] | ≤ -4.2 |
| GGAUCUUCUCGAUCUAACAAAUAAGACAAAUCUGCCACAAAGCUUGAGAGCAUCUUCGGAUGCAGAGGCGGCAGCCUUCGGUGGCGCGAUAGCGCCGACGUUCUCAACUAUGACACGCAAAACGCGUGCUCCGUUGAAUGGAGUUUAUCAUG [A22U A97G] | 0.0508 |
| GGAUCUUCUCGAUCUAACAAAUAAGACAAAUCUGGCACAAAGCUUGAGAGCAUCUUCGGAUGCAGAGGCGGCAGCGUUCGGUGGCGCGAUAACGCCAACGUUCUUAACUAUGACACGCAAAACGCGUGCUCCGUUGAAUGGAGUUUAUCAUG [A22U C35G C76G G92A C105U] | ≤ -4.2 |
| GGAUCUUCUCGAUCUAACAAAUAAGACAAAUCUGCCACAAAGCUUGAGAGCAUCUUCGGAUGCAGAGGCGGCCGCCUUCGGUGGCGCGAUAUCGCCAACGUUCUCAACUGCGACACGCAAAACGCGUGCUCCGUUGAAUGCAGUUUAUCAUG [A22U A73C G92U A110G U111C G141C] | ≤ -4.2 |
| GGAUCUUCUCGAUCUAACAAAUAAGACAAAUCUGCCACAAAGCUUGAGAGCAUCUUCGGAUGCAGCGGCGGCAGCCUUCGGUGGGGCGAUAGCGCCAACGUUCUCAACUAUGACACGCAAAACGCGUGCUCCGUUGAAUGGAGUUUAUCAUG [A22U A66C C85G] | ≤ -4.2 |
| GGAUCUUCUCGAUCUAACAAAUAAGACAAAUCUGCCACAAAGCUUGAGAGCAUCUUCGGAUGCAGAGGCGGCAGCCUUCGGUGGCGCGAUAGCGCCGACGUUCUCAACUAUGACACGCAAAGCGCGUGCUCCGUUGAAUGGAGUUUAUCAUG [A22U A97G A122G] | 0.332 |
| GGAUCUUCUCGAUCUAACAAAUAAGAUAAAUCUGCUACAAAGCUUGAGAGCAUCUUCGGAUGCAGAGGCGGCAGCCUUCGGUGGCGCGAUAGCGCCAUCGUUCUCAACUAUGACACGCAAAACGCGUGCUCCGUUGAAUGGAGUUUAUCAUG [A22U C27U C36U A98U] | -3.64 |
| GGAUCUUCUCGAUCUAACAAAUAAGACAAAUGUGCCACAAAGCUUGAGAGCAUCUUCGGAUGCAGAGGCGGCAGCCUUCGGUGGCGCGAUAGCGCCAACGUUCUCAACUAUGACACGCAAAACGCGUGCUCCGCUGAAUGGAGUUUAUCAUG [A22U C32G U134C] | ≤ -4.2 |
| GGAUCUUCUCGAUCUAACAAAUAAGACAAAUCUGCCACAAAGCUUGAGAGCAUUUUCGGAUGCAGAGGCGGCAGCCUUCGAUAGCGCGAAAGCGUCAACGUUCUCAACUAUGACACGCAAAACGCGUGCUCCGUUGAAUGCAGUUUAUCAUG [A22U C54U G81A G83A U90A C95U G141C] | ≤ -4.2 |
| GGAUCUUCUCGAUCUAACAAAUAAGACAAAUCUGCCAUAAAGCUUGAGAGCAUCUUUGGAUGCAGAGGCGGCAGCCUUCGGUGGCGCGAUAGCCCCAACGUUCUCAACUAUGACACGCAAAACGCUUGCUCCGUUGAAUGGAGUUUAUCAUG [A22U C38U C57U G94C G126U] | -0.0445 |
| GGAUCUUCUCGAUCUAACAAAUAAGACAAAUCUGCAACAAAGCUUGAGAGCAUCUUCGGAUGCAGAGGCGGCAGCCUUCGGUAGCGCGAUAGCGCCAACGUUCUCAACUAUGACACGCAAAACGCGUGCUCCGUUGAAUGGAGUAUAUCAUG [A22U C36A G83A U145A] | ≤ -4.2 |
| GGAUCUUCUCGAUCUAACAAAUAAGACAAAUCUGCCACAAAGCUUGAGAGCAUGUUCGGAUGCAGAGGCGGCAGCCUUCGGUGGCGCGAUAGCGUCAACGUUCUCAACUAUGACACGCAAAACGCGUGCUCCGUUGAAUGGAGUUUAUCAUG [A22U C54G C95U] | -2.06 |
| GGAUCUUCUCGAUCUAACAAAUAAGACAAAUAUGCCACAAAACUUGAAAGCGUCUUCGGAUGCAGAGGCGGCAGCCUUCGGUGGCGCGAUAGCGCCAACGUUCUCAACUAUGACACGCAAAACGCGUGCUCCGUUGAAUGGAGUUUAACAUG [A22U C32A G42A G48A A52G U148A] | ≤ -4.2 |
| GGAUCUUCUCGAUCUAACAAAUAAGACAAAUCUGCCACAAAGCUUGAGAGCAUUUUCGGAUGCAGAGGCGGCAGCCUUCGGUGGCGCGAUAGCGCCAACGUUCUCAACUAUGACACGCAAAACGCGUGCUCCGUUGAAUGGAGUUUAUCAUG [A22U C54U] | 0.174 |
| GGAUCUUCUCGAUCUAACAAAUAAGACAAAUCUGUCACAAAGCUUGUGAGCAUCUUCGUAUGCAGAAGCGGCAGCCUUCGGUGGCGCGAUAGCGCCAACGUUCUCAACUAUGACACGCAAAACGCGUGCUCAGUUUAAUGGAGUUUAUCAUG [A22U C35U A47U G59U G67A C132A G136U] | ≤ -4.2 |
| GGAUCUUCUCGAUCUAACAAAUAAGACAAAUCUGCCACAAAGCUUGAGAGCAUCUUCGGAUGCAGAGGCGGCAGCCUUCGGUGGCGCGAUAGCGCCAACGUUCUCAACUAUGACCCGCAAAACGCGUGCUCCGUUGAAUGGAGUUUAUCAUG [A22U A115C] | -0.374 |
| GGAUCUUCUCGAUCUAACAAAUAAGACAAAUAUGCAACAAAGCUUGAGAGCAUCUUUGGAUGCAGAGGCGGCAGCCUUCGGUGGCGCGAUAGCGCGAACGUUCUCAACUAUGACAUGCAAAACGCGUGCUCCGUUGAAGGGAGUUUAUCAUG [A22U C32A C36A C57U C96G C116U U139G] | ≤ -4.2 |
| GGAUCUUCUCGAUCUAACAAAUAAGACAAAUCUGCCACAAAGCUUGAGAGUAUCUUCGGAUGCAGAGGCGGCAGCCUUCGGUGGCGCGAUAGCGCCAACGUUCUCAACUAUGACACGCAAAACGCGUGCUCCGUUGGAUGGAGUUUCUCAUG [A22U C51U A137G A147C] | -2.48 |
| GGAUCUUCUCGAUCUAACAAAUAAGACAAAUCUGCCACAAAGCUUGAGAGCAUCUUCGGAUGCAGAGGCGGCAGCCUUCGGUGGCGCGAUAGCGCCAACGUUCUCAACUAUGACACGCAGAACGCGUGCUCCGUUGAAUGGAGAUUAUCAUG [A22U A120G U144A] | 0.42 |
